One assay has as its target T1, nLUC (firefly, UniProt P08659 1-416 = luciferase).
T1 construct: Control of the luciferase complementation imaging assay
Kind of assay: firefly luciferase complementation imaging, co-expression in N. benthamiana leaves. The procedure: (§1) (A) OML4 interacts with GSK2 in yeast cells. Yeast cells were cultured on SD/-Trp-Leu or SD/-Trp-Leu-His-Ade media. (B) OML4 associates with GSK2 in N. benthamiana. OML4-nLUC and GSK2-cLUC were co-expressed in N. benthamiana leaves. Luciferase activity was observed 48 hours after infiltration. The range of luminescence intensity was scaled by the pseudocolor bar. (C) Bimolecular fluorescence complementation (BiFC) assays shown that OML4 interacts with GSK2 in N. benthamiana. OML4-cYFP was coexpressed with GSK2-nYFP in leaves of N. benthamiana. (D) OML4 binds GSK2 in vitro. GSK2-GST was incubated with OML4-MBP and pulled down by OML4-MBP and detected by immunoblot with anti-GST antibody. IB: immunoblot. (E) Interaction between OML4 and GSK2 in the Co-IP assays. Anti-MYC beads were used to immunoprecipitate GSK2-GFP proteins. Gel blots were probed with anti-MYC or anti-GFP antibody. Bars: 50 μm in C.
(§2) We next verified the interaction between OML4 and GSK2 in plant cells using the firefly luciferase (LUC) complementation imaging assay (FIG. 5B). The OML4-nLUC and GSK2-cLUC were transformed and co-expressed in N. benthamiana leaves. […] We then performed bimolecular fluorescence complementation (BiFC) assay to test the interaction between OML4 and GSK2 in plant cells (FIG. 5C). […]

Another assay concerns the target T2, OML4-nLUC (rice; firefly, UniProt Q64M78 1-1001).
T2 construct: Co-expressed in N. benthamiana leaves; Order of the pieces follows the printed name; not shown: N-terminal fragment of firefly luciferase (nLUC)
T2 sequence: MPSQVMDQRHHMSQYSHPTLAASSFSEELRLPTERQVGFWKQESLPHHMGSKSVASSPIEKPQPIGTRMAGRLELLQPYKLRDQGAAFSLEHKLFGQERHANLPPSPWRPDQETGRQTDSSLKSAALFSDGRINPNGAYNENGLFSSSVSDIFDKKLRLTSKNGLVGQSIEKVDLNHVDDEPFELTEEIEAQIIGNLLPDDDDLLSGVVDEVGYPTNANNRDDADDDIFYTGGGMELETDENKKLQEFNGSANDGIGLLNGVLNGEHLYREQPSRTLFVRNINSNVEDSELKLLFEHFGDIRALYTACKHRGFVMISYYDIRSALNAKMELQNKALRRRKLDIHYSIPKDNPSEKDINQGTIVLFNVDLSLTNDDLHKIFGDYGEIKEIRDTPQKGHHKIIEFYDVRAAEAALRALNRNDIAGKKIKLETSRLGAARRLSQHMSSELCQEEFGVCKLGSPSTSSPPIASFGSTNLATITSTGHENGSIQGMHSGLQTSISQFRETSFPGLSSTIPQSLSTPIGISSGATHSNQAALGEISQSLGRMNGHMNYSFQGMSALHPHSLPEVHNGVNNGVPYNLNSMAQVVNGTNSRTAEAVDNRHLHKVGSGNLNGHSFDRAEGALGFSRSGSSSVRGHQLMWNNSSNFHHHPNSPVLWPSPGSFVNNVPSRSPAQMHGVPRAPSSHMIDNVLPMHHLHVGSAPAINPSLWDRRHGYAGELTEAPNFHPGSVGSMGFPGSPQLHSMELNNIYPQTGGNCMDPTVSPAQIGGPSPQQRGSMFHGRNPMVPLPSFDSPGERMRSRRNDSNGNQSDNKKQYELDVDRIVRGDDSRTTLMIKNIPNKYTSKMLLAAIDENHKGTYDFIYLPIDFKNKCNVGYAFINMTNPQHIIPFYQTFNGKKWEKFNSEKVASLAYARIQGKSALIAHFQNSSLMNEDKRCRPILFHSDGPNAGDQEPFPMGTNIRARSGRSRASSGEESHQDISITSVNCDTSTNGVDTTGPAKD
As to the kind of experiment: firefly luciferase complementation imaging in N. benthamiana leaves. The procedure:
as §1, §2

T1 sequence (P08659 1-416): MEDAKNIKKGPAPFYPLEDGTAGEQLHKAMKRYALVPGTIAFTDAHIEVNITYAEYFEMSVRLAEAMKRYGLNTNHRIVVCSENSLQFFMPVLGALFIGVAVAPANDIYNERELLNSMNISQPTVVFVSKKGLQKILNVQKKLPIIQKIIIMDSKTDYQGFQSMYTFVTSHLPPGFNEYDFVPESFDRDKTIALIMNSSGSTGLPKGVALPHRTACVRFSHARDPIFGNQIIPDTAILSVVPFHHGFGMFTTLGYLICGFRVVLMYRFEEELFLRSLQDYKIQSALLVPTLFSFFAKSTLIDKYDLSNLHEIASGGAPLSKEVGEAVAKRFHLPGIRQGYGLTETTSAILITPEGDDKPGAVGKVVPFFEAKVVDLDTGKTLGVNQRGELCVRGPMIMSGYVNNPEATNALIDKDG

B1: GSK2-cLUC (enzyme)
chain: MDQPAPAPEPMLLDAQPPAAVACDKKQQEGEAPYAEGNDAVTGHIISTTIGGKNGEPKRTISYMAERVVGTGSFGIVFQAKCLETGETVAIKKVLQDRRYKNRELQLMRAMDHPNVISLKHCFFSTTSRDELFLNLVMEYVPETLYRVLKHYSNANHRMPLIYVKLYMYQLFRGLAYIHTVPGVCHRDVKPQNVLVDPLTHQVKLCDFGSAKTLVPGEPNISYICSRYYRAPELIFGATEYTTSIDIWSAGCVLAELLLGQPLFPGESAVDQLVEIIKVLGTPTREEIRCMNPNYTEFRFPQIKAHPWHKVFHKRMPPEAIDLASRLLQYSPSLRCTALDACAHPFFDELREPNARLPNGRPFPPLFNFKHELANSSQELISRLIPEHVRRQATHNFFNTGS
notes: Co-expressed in N. benthamiana leaves; Order of the pieces follows the printed name; not shown: C-terminal fragment of firefly luciferase (cLUC)
In the case of B1, the binding result in the assay with nLUC is on record as “no binding”; with OML4-nLUC, “binds”.

The values are drawn from patent publication US20230081195A1 (INSTITUTE OF GENETICS AND DEVELOPMENT BIOLOGY CHINESE …, published 2023).
